Source: the RNAGym collection of RNA variant scans (doi:10.7554/elife.80360)

B1: HDV Ribozyme (parent)
chain: GGCCGGCAUGGUCCCAGCCUCCUCGCUGGCGCCGGCUGGGCAACAUUCCGAGGGGACCGUCCCCUCGGUAAUGGCGAAUGGGACCCA

Variants of: B1
Test: self-cleavage, relative activity (ratio to wild type); higher = more cleavage; co-transcriptional

Point of comparison: AGCCGGCAUGGUCCCAGCCUCCUCGCUGGCGCCGGCUGGGCAACAUUCCGAGGGGACCCUCCCCUCGGUAAUGGCGAAUGGGACCCA, self-cleavage 0.229. Against it:
- CGCCGGCAUGGUCCCAGCCUCCUCGUUGGCGCCGGCUGGGCAACAUUCCGAGGGGACCGUCCCCUCGGUAAUGGCGAAUGGGACCCA — lower, 0.0898
- AGCCGGCAUGGUCCCAGCCUCCUCGCUGGCGCCGGCUGGGCAACAUUCCGAGGGGACCGUCCCCUCGGUAAUUGCGAAUGGGACCCA — lower, 0.0545
- CGCCGGCAUGGUCCCAGCCUCCUCGCUGGCGCCGGCUGGGCAACAUUCCGAGGGGACCGUCCCCUCGGUAAUGGCGUAUGGGACCCA — lower, 0
- CGCUGGCAUGGUCCCAGCCUCCUCGCUGGCGCCGGCUGGGCAACAUUCCGAGGGGACCGUCCCCUCGGUAAUGGCGAAUGGGACCCA — lower, 0.0489
- AGCCGGCAUGGUCCCAGCCUCCUCGCUGGCGCCGGCUGGGCAACAUUCCGAGGGGACCGUCCCCUCGGUAAUGGCGAAUUGGACCCA — lower, 0.0133
- AGCCGGCAUGGUCCCAGCCUCCUCGCUGGCGCCGGCUGGGCAACAUUCCGAGGGGACCGUCCCCUCGUUAAUGGCGAAUGGGACCCA — lower, 0.178
- CGCCUGCAUGGUCCCAGCCUCCUCGCUGGCGCCGGCUGGGCAACAUUCCGAGGGGACCGUCCCCUCGGUAAUGGCGAAUGGGACCCA — lower, 0.175
- CGCCGGCAUGUUCCCAGCCUCCUCGCUGGCGCCGGCUGGGCAACAUUCCGAGGGGACCGUCCCCUCGGUAAUGGCGAAUGGGACCCA — lower, 0.115
- AGCCGGCAUGGUCCCAGCCUCCUCGCUGUCGCCGGCUGGGCAACAUUCCGAGGGGACCGUCCCCUCGGUAAUGGCGAAUGGGACCCA — lower, 0.0639
- AGCCGGCAUGGUCCCAGCCUCCUCGCUGGCGCCGGCUGGGCAACACUCCGAGGGGACCGUCCCCUCGGUAAUGGCGAAUGGGACCCA — lower, 0.208
- AGCCGGCAUGGUCCCAGCCUCCUCGCUGGCGCCGGCUGGGCAACAUUCCGAGGGGACCGUCCCCUCGGAAAUGGCGAAUGGGACCCA — lower, 0.145
- AGCCGGCAUGGUCCCAGCCUCCACGCUGGCGCCGGCUGGGCAACAUUCCGAGGGGACCGUCCCCUCGGUAAUGGCGAAUGGGACCCA — lower, 0.217
- AGCCGGCAUGGUCCCAGCCUCCUCGCUGGCGCCGGCUGGGCAACAUUCCGAGGGGACCGUCCCCACGGUAAUGGCGAAUGGGACCCA — lower, 0.0692
- CGCCGGCAUGGUCCCAGCCUCCUCGCUGGCGCAGGCUGGGCAACAUUCCGAGGGGACCGUCCCCUCGGUAAUGGCGAAUGGGACCCA — lower, 0.222
- AGCCGGCAUGGUCCCAGCCUCCUCGCUGGCGCCUGCUGGGCAACAUUCCGAGGGGACCGUCCCCUCGGUAAUGGCGAAUGGGACCCA — lower, 0.095
- CGACGGCAUGGUCCCAGCCUCCUCGCUGGCGCCGGCUGGGCAACAUUCCGAGGGGACCGUCCCCUCGGUAAUGGCGAAUGGGACCCA — higher, 0.234
- AGCCGGCAUGGUCCCAGCCUCCUCGCUGGCGCCGGCUGGGCAACAUUCCGAGCGGACCGUCCCCUCGGUAAUGGCGAAUGGGACCCA — lower, 0
- AGCCGGCAUGGUCCCAGCCUCCUCGCUGGCGCCGGCUGGGCAACAUUCCGAGUGGACCGUCCCCUCGGUAAUGGCGAAUGGGACCCA — lower, 0.0386
- AGCCGGCAUGGUCCCAGCCUCCUCGCUGGCGCCGGCUGGGCAACAUUCCGAGGGGACCGCCCCCUCGGUAAUGGCGAAUGGGACCCA — lower, 0.166
- AGCCGGCAUGGUCCCAGCCUCCUCGCUGGCGCCGGCUGGGCAACAUUCCGAGGGGACCUUCCCCUCGGUAAUGGCGAAUGGGACCCA — lower, 0.214
- AGCCGGCAUGGUCCCAGCCUCCUCGCUGGCGCCGGCUGGGCAACAUUCCGAGGGGACCAUCCCCUCGGUAAUGGCGAAUGGGACCCA — lower, 0.0573
- AGCCGGCAUGGUCCCAUCCUCCUCGCUGGCGCCGGCUGGGCAACAUUCCGAGGGGACCGUCCCCUCGGUAAUGGCGAAUGGGACCCA — lower, 0.0449
- CGCCGGCAUGGUCCCAGCCUCCUCGCUGGCGCCGGCUGGGCAACAUUCCGAGGGGACCGUCCCCUCGGUAAUGGCGAAUGGGCCCCA — lower, 0.185
- CGCCGGCAUGGUCCCAGCCUCCUCGCUGGCGCCGGCUGGGCAACAUUCCGAGGGGAACGUCCCCUCGGUAAUGGCGAAUGGGACCCA — higher, 0.284
- CGCCGGCAUGGUCCCAGCCUCCUCGCUGGCGCCGGCUGGGCAACAUUGCGAGGGGACCGUCCCCUCGGUAAUGGCGAAUGGGACCCA — higher, 0.346
- AGCCGGCAUGGUCCCAGCCUCCUCGCUGGCGCCGGCUGGGCAACAUUCCGAGGGGACCGUCCCCUCGGUAAUGGCGAAUGGAACCCA — lower, 0
- AGCCGGCAUGGUCCCAGCCUCCUCGCUGGCGCCGGCUGGGCAACAUUCCGAGGGGACCGUCCCCUCGGUAAUGGCGAAUGGUACCCA — lower, 0.095
- CGCCGGCAUGGUGCCAGCCUCCUCGCUGGCGCCGGCUGGGCAACAUUCCGAGGGGACCGUCCCCUCGGUAAUGGCGAAUGGGACCCA — lower, 0.0791
- CGCCGGCAUGGUCCCAGCCUCCUCGCUGGAGCCGGCUGGGCAACAUUCCGAGGGGACCGUCCCCUCGGUAAUGGCGAAUGGGACCCA — lower, 0.104
- CGCCGGCAUGGUCCCAGCCUCCUCGCUGGCGCCGGCUGGGCAACAUUCCGAGGGGACCGUCCCCUCGGUAAUGGCGAAUGGGACCCA — lower, 0.179
- CGCCGGCAUGGUCCCAGCCUCCUCGCUGGCGCCGGCUGGGCAACAUUCCGAGGGGACCGUCCCCUCGGUAAUGGCGAAUGGGACCCG — lower, 0.0712
